# According to paper PMC11643483, “Chip-Scale Aptamer Sandwich Assay Using Optical Waveguide-Assisted Surface-Enhanced Raman Spectroscopy”:
# Biological target: cardiac troponin I (cTnI) (UniProt P19429 2-210)
# Assay: SERS aptamer sandwich assay on waveguide; 1 ng/mL cTnI stock (25 uL mixed with 50 uL reporter NPs); sandwich with N2-AuNP; no cTnI-free control described; aptamer-AuNPs resuspended in PBS; cTnI incubated 30 min with reporter NPs, then 1 h on waveguide, rinsed with buffer; pH and temperature not stated
# Conditions: protein: commercial
# Chain of cardiac troponin I (cTnI) (P19429 2-210): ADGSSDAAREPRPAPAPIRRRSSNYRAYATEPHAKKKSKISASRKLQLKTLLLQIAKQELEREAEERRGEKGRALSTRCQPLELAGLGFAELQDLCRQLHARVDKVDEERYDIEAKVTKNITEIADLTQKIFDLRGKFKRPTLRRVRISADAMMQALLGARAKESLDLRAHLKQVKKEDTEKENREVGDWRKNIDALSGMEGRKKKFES
binder,measurement,value
"CGTGCAGTACGCCAACCTTTCTCATGCGCTGCCCCTCTTA (ssDNA, 5'-amine-spacer 18-spacer 18) [primary (capture) aptamer]",binding result,binds
